Source: publication PMC4643347

Assays:
[1] = biological target: ST50, outer-membrane protein of the multi-drug efflux system from Salmonella enterica serovar Typhi (Salmonella enterica serovar Typhi); assay: crystal structure; ST50 crystallised by hanging-drop vapor diffusion; sodium acetate 100 mM pH 4.6, NaCl 86 mM, PEG 8000 10.4%, β-OG 0.4%, 18 °C; 2.98 Å; three protomers per asymmetric unit
[2] = biological target: ST50, outer-membrane protein of the multi-drug efflux system from Salmonella enterica serovar Typhi (Salmonella enterica serovar Typhi); assay: SEC; Superdex 200 10/30 GL; Tris 20 mM pH 7.5, NaCl 150 mM, β-DDM 0.2%; major fraction at about 220 kDa (trimer plus detergent micelle)

Substance “ST50, outer-membrane protein of the multi-drug efflux system from Salmonella enterica serovar Typhi (natural protein)” has a stoichiometry N [1] of 3 and a stoichiometry N [2] of 3.
